We go through one molecule from publication PMC4852880.

In this series the target is HMGB1b (rat, UniProt P63159 95-163). The series is described as follows: EMSA. (Mobility shift assays separate free from complexed probe on a gel.)
Chain of HMGB1b (P63159 95-163): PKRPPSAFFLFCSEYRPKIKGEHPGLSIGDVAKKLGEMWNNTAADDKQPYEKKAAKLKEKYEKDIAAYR

B1: J1 (structured_DNA)
DNA 1: CGCAATCCTGAGCACG
DNA 2: CGTGCTCACCGAATCG
DNA 3: GCATTCGGACTATGGC
DNA 4: GCCATAGTGGATTGCG
In the case of B1, the binding result is “binds”.
